One molecule from PMC10842940, “Establishment of dsDNA-dsDNA interactions by the condensin complex” (Molecular cell, 2023) can be followed below.

Experiment [1] deals with T1, Cnd1^Ycs4 (fission yeast condensin HEAT-repeat subunit) (S. pombe, UniProt O94679 1-1158).
T1 construct: Cnd1 (Ycs4), S. pombe condensin HEAT-repeat subunit; cDNA cloned into an S. cerevisiae expression vector; source: S. cerevisiae (w303, pep4 deleted), co-overexpressed with the other four condensin subunits from GAL1-10 promoters; in cell extract, and purified as the complex (IgG-agarose, 3C protease elution, heparin, Superose 6)
T1 sequence (looked up): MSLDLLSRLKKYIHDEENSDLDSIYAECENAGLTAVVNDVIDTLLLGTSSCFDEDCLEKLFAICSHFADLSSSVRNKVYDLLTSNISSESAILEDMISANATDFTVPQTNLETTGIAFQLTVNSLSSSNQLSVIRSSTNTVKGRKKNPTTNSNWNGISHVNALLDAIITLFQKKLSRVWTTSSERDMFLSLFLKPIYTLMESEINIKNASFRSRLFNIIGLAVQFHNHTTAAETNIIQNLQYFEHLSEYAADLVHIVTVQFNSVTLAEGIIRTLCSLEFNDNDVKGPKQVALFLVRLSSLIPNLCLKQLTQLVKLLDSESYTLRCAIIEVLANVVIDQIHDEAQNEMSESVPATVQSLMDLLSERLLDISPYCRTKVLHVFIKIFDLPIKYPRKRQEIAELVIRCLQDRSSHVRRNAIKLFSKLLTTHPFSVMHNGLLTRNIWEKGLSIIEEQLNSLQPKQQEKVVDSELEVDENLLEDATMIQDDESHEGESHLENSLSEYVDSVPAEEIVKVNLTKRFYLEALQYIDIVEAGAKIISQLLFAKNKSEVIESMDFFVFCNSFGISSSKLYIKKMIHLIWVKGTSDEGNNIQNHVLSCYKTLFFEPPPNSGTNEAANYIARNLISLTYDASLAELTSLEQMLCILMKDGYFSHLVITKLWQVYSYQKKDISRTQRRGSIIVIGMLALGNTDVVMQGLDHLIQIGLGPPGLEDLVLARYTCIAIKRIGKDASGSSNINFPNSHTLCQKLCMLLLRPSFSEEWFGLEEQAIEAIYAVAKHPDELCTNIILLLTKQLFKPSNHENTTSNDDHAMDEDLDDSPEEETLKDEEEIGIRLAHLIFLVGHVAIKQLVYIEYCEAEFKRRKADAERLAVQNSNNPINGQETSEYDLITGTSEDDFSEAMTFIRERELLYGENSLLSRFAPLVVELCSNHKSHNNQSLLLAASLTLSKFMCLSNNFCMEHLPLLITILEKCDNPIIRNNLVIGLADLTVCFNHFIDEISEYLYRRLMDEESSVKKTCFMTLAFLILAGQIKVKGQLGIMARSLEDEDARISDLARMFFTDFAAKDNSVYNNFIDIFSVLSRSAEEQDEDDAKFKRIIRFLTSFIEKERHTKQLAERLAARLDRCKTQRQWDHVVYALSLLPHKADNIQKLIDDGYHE
As to the kind of experiment: cross-linking; sulfo-SDA cross-link mass spectrometry (CLMS) of the purified five-subunit condensin complex with equimolar 124 bp linear dsDNA and 0.5 mM ADP·BeF3 (DNA-gripping state); CL buffer, 30°C 30 min, UV 365 nm on ice; 1% FDR at residue-pair level. The settings on record: both partners purified.

In experiment [2] the target is T2, Cut14^Smc2 (fission yeast condensin SMC subunit) (S. pombe, UniProt P41003 1-1172).
T2 construct: Cut14 (Smc2), S. pombe condensin SMC subunit; cDNA cloned into an S. cerevisiae expression vector; The Pk tag is used for the condensin immunoprecipitation in the DNA assays; also called Cut14-3xPk; source: S. cerevisiae (w303, pep4 deleted), co-overexpressed with the other four condensin subunits from GAL1-10 promoters; in cell extract, and purified as the complex (IgG-agarose, 3C protease …)
T2 sequence (looked up): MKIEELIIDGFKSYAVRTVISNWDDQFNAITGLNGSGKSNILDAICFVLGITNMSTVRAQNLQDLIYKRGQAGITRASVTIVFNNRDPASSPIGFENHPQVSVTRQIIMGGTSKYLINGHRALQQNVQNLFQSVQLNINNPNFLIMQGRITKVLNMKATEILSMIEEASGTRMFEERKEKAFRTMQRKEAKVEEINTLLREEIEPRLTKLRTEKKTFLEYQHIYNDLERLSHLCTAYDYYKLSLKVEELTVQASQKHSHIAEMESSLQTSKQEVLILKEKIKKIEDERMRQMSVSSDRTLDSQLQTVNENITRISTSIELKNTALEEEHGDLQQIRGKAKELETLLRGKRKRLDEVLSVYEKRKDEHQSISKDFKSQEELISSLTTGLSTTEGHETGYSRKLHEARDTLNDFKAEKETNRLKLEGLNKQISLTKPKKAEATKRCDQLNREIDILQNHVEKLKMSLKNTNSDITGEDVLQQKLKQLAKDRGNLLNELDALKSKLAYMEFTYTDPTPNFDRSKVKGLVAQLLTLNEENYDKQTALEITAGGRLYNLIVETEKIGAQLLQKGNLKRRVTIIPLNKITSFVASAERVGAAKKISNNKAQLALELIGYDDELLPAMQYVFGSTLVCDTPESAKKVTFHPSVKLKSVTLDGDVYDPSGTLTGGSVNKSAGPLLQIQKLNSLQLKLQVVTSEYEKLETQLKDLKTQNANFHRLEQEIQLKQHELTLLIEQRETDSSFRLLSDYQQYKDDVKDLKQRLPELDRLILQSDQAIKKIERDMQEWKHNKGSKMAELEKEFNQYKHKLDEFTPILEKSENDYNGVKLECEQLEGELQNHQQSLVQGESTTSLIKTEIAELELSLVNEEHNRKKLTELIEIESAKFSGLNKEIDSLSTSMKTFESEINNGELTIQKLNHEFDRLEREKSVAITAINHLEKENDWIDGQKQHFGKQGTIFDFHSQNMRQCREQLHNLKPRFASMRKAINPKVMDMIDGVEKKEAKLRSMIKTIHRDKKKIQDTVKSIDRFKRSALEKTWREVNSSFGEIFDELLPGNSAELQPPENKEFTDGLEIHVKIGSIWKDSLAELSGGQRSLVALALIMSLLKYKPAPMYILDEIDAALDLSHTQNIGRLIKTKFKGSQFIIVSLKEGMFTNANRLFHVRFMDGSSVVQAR
Kind of experiment: cross-linking; sulfo-SDA cross-link mass spectrometry (CLMS) of the purified five-subunit condensin complex with equimolar 124 bp linear dsDNA, no nucleotide (initial state); CL buffer, 30°C 30 min, UV 365 nm on ice; 1% FDR at residue-pair level. The settings on record: both partners purified.

B1: Cnd3^Ycg1 (fission yeast condensin HEAT-repeat subunit) (natural protein, S. pombe, UniProt Q10429 1-875, looked up)
chain: MSCIQIISSSQTSIAGHRKLCNKLFTLRTQEGFETDILRALNIILTVKKGNSNADRVLRFLVTFVNYLQQKDPEIDIVQPILKHILRGLDAKDKTVRYRCCQIIARVVNCVKEIDDDLYNTLKEKLLSRVLDRESIVRLEAVVALSRLQEDTGDEENDVRNILLFLLQNDPSSEVRRSVLLNIEVSNSTLPFILERARDVDAANRKCVYARVLPKIGDFRYLSIKKRVRILKWGLNDRDESVEKAAADMLAYQWIENADNNLLELLERLDVSNNSDVAVLAIKKFFDVRVDSLSQLEFPEQFWLELTAESSLLARTFNEICIEKNYTDLLDKMPEVVQLTYYIERQYVSLRDKSSYDESCFIIEQLLYIGLSQDMVDEIGRRKLLKSLTNSLSTMALPDSLISLHIELLRKLCSSENDFCSLLVEIITEVFEQGHSQNQTEEQGNSNAPELNKNDYEGEEITVSQKSPSPSLPPNELNEPEPDDMDGYKEAFNELRCLSYVQCLFENITSSLNENLYMVDMLKTLIIPAVRSHDLPIREKGLECLSLVCLLNADLAFENVPLYLHCYEKGSVVLKCTAIRTLTDMLIQHGKAKFTEYEDAISSILFEALGEFENAELQTLGAEAIAKLLVILHYRDELFLKPLIIQYFEPNTVDNHALRQVLGYFFPVYAFGAHENQWRIATIFCDALLSLLEIYRDLDEDDVQLSIGHIAQQMLDWTDNEKLYERKTQTGDDYIALNHNVHLHLANMIFESLPNASEGKERKFMISLLGKLKIPTDLPSSDYQRTKRKLETYESHGFTMDSTSLSILAKFERMLLQNEEARSKFEETEEERLMENAEENEHAGAEAISGEIIPDTVEANMEDEEEVYVKQEEDL
notes: Cnd3 (Ycg1), S. pombe condensin HEAT-repeat subunit; cDNA cloned into an S. cerevisiae expression vector; also called Cnd3^CAP-G; source: S. cerevisiae (w303, pep4 deleted), co-overexpressed with the other four condensin subunits from GAL1-10 promoters; in cell extract, and purified as the complex (IgG-agarose, 3C protease elution, heparin, Superose 6)
With B1, the binding result in experiment [1] and in experiment [2] was “binds” in each case.
